Data published in patent publication US20110091971A1, “Differentiation of Pluripotent Stem Cells” (priority 2008, published 2011).
Changes are numbered by the printed parent chain. Several values for one entry are separate records, joined by “and”; a condition that tells them apart may be missing. Equal values may be shown once.

Test system: H1 or H9 human embryonic stem cells
Experiment: Activin A bioassay: differentiation of human embryonic stem cells to definitive endoderm, cell number and SOX17 intensity by high content analysis (96-well, four days);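 as to Cell Number average: Raw total cell count per well from high content imaging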;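 as to Sox 17 Intensity average: total fluorescence of the cell multiplied by cell area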
Format: cell-based
Outline: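 Read-out was cell count and integrated SOX17 immunofluorescence by high-content imaging, with each well divided by the mean of the 100 ng/ml activin A control. Over the four-day culture, test samples were given in DMEM:F12 with 0.5% FCS plus 20 ng/ml Wnt3a for the first two days and in 2% FCS alone for the last two. Cells were H1 or H9 hESC clusters grown on Matrigel.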

[1] = concentrated supernatant (10x; ACTD3 4x), assay dilution 1:20
[2] = supernatant concentration 1x, assay dilution 1:20
[3] = supernatant concentration 10x, assay dilution 1:20
[4] = supernatant concentration 10x, assay dilution 1:20, assay plates #007, #009, #010
[5] = supernatant concentration 10x, assay dilution 1:40
[6] = supernatant concentration 10x, assay dilution 1:40, control = R&D Sys Activin A 100 ng/ml on same plate
[7] = supernatant concentration 50x, assay dilution 1:20, assay plates #008, #009
[8] = supernatant concentration 50x, assay dilution 1:20, control = R&D Sys Activin A 100 ng/ml on same plate
[9] = supernatant concentration 10x, assay dilution 1:20, control = R&D Sys Activin A 100 ng/ml on same plate

B1: ACTN1: wild type Activin A mature protein (SwissProt/UniProt: P08476), SEQ ID 2, expressed from applicant's construct (protein)
chain: GLECDGKVNICCKKQFFVSFKDIGWNDWIIAPSGYHANYCEGECPSHIAGTSGSSLSFHSTVINHYRMRGHSPFANLKSCCVPTKLRPMSMLYYDDGQNIIKKDIQNMIVEECGCS
activity in the cell-based assay, as judged by cell number and SOX17 intensity increases (ACTN 1 pUnder construct versus OriGene wildtype construct, CHO-S or HEK293-F supernatants): greater activity | expression/activity of supernatant measured by SOX17 expression levels (CHOS cells, even after concentrating the supernatant): weak or negligible results | Cell Number average [1]: 12233 | Sox 17 Intensity average [1]: 1.15E+08 | Sox 17 Intensity % of control (concentrated supernatant (10x; ACTD3 4x), assay dilution 1:20, control = R&D Sys Activin A 100 ng/ml): 263% | expression/activity of supernatant measured by SOX17 expression levels (pUnder expression vector and HEK293F cells): significantly improved | Cell Number average [2]: 4284 and 5466 | Cell Number average [3]: 7083 and 9254 | Cell Number average [4]: 12543 and 11568 and 15112 | Cell Number average [5]: 5924 | Sox 17 Intensity average [5]: 1.10E+08 | Sox 17 Intensity % of control [6]: 480.5% | Cell Number average [7]: 13673 | Sox 17 Intensity average [7]: 2.60E+08 | Sox 17 Intensity % of control [8]: 470.1%

B2: ACTN4: activin A variant peptide, SEQ ID 5 (protein)
chain: B1 chain with I10L, F16L, Y39H, E41S, E43L, A75S, N76D, L77M, K78G, S79A
higher potency of supernatant concentrated 10× relative to corresponding unconcentrated supernatant (primary screening, SOX17 expression, H1 cells): 2.6 fold | Cell Number average [2]: 6380 | Sox 17 Intensity average [2]: 9.099E+07 | Sox 17 Intensity % of control (supernatant concentration 1x, assay dilution 1:20, control = R&D Sys Activin A 100 ng/ml on same plate): 49.5% | Cell Number average [3]: 8916 | Sox 17 Intensity average [3]: 2.385E+08 | Sox 17 Intensity % of control [9]: 129.7% | Cell Number average [5]: 6548 | Sox 17 Intensity average [5]: 2.075E+08 | Sox 17 Intensity % of control [6]: 112.8%

B3: ACTN48: activin A variant peptide, SEQ ID 49 (protein)
chain: B1 chain with I10L, F16N, Y39E, E41S, E43L, L77M, K78G, S79A, V82I
Cell Number average [4]: 6030 | Sox 17 Intensity average [4]: 1.77E+07 | Sox 17 Intensity % of control [9]: 71.1% | Cell Number average [7]: 8941 | Sox 17 Intensity average [7]: 3.93E+07 | Sox 17 Intensity % of control [8]: 157.8%
